According to IntAct's records for PubMed 20935634:

B1: FAS-associated death domain protein (Homo sapiens), Q13158 (parent)
chain: MDPFLVLLHSVSSSLSSSELTELKFLCLGRVGKRKLERVQSGLDLFSMLLEQNDLEPGHTELLRELLASLRRHDLLRRVDDFEAGAAAGAAPGEEDLCAAFNVICDNVGKDWRRLARQLKVSDTKIDSIEDRYPRNLTERVRESLRIWKNTEKENATVAHLVGALRSCQMNLVADLVQEVQQARDLQNRSGAMSPMSWNSDASTSEAS

Variants of: B1
Conditions: with FAS

| Variant | effect of a mutation on the interaction |
| --- | --- |
| L172K | disrupting interaction |
| D175K | disrupting interaction |

Variants of: B1
Conditions: with FAS
Remark: another data set of the same source

| Variant | effect of a mutation on the interaction |
| --- | --- |
| K153E | decreasing interaction |
| L172E | disrupting interaction |
